Literature values as cited in paper PMC11087511.
pKi: −log10 of the molar value.

Columns and labels:
[1] = target: factor Xa within prothrombinase (Homo sapiens) (UniProt P00742); conditions: cited from earlier work
factor Xa (Homo sapiens) = factor Xa (Homo sapiens) (UniProt P00742); conditions: cited from earlier work
Chain of factor Xa (Homo sapiens) (P00742 235-488): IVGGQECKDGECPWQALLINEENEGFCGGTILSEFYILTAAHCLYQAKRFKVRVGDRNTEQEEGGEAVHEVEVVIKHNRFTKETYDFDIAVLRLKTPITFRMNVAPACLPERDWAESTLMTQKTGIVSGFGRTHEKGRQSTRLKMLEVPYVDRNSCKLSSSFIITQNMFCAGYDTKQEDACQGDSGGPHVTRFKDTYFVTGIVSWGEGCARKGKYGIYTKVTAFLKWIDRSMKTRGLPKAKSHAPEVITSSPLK

Chain of Tick anticoagulant peptide (TAP) (P17726 whole entry): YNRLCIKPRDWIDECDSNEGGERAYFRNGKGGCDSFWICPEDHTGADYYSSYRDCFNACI
Chain of factor Xa within prothrombinase (Homo sapiens) (P00742 41-179, chain 1 of 2): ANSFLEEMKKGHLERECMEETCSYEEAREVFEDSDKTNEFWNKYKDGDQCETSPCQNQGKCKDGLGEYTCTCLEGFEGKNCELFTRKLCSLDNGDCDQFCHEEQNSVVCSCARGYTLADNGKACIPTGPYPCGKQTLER
Chain of factor Xa within prothrombinase (Homo sapiens) (P00742 235-488, chain 2 of 2): as the sequence (P00742 235-488) above

Tick anticoagulant peptide (TAP) (from UniProt P17726)
pKi [1]: 11.28 | pKi (factor Xa (Homo sapiens)): 9.74
